Results from patent publication US20040072256A1.

Key:
[1] = target: hemagglutinin-neuraminidase (HN) glycoprotein of Sendai virus (Sendai virus); experiment: cell-based or functional assay
[2] = target: hemagglutinin (HA) of Influenza virus A/PR/8/34 (H1N1) (Influenza virus A/PR/8/34 (H1N1)) (UniProt P03452); experiment: cell-based or functional assay
[3] = target: hemagglutinin-neuraminidase (HN) glycoprotein of Sendai virus (Sendai virus); experiment: flow cytometry on SV-infected 721.221 cells, no mAb
[4] = target: hemagglutinin (HA) of Influenza virus A/PR/8/34 (H1N1) (Influenza virus A/PR/8/34 (H1N1)) (UniProt P03452); experiment: flow cytometry on IV-infected 1106mel cells, no mAb
[5] = target: hemagglutinin-neuraminidase (HN) glycoprotein of Sendai virus (Sendai virus); experiment: flow cytometry, SV-infected vs uninfected 721.221 cells
[6] = target: hemagglutinin (HA) of Influenza virus A/PR/8/34 (H1N1) (Influenza virus A/PR/8/34 (H1N1)) (UniProt P03452); experiment: flow cytometry, IV-infected vs uninfected 1106mel cells
[7] = target: hemagglutinin-neuraminidase (HN) glycoprotein of Sendai virus (Sendai virus); experiment: flow cytometry, 293T cells transfected with Sendai HN cDNA vs mock
[8] = target: hemagglutinin-neuraminidase (HN) glycoprotein of Sendai virus (Sendai virus); experiment: flow cytometry on SV-infected 721.221 cells pre-incubated with competitor 135.7 (anti-HN)
[9] = target: hemagglutinin-neuraminidase (HN) glycoprotein of Sendai virus (Sendai virus); experiment: flow cytometry on SV-infected 721.221 cells pre-incubated with competitor TC-9A1 (anti-F)
[10] = target: hemagglutinin-neuraminidase (HN) glycoprotein of Sendai virus (Sendai virus); experiment: flow cytometry on SV-infected 721.221 cells pre-incubated with competitor TC-1D6 (anti-HN)
[11] = target: hemagglutinin-neuraminidase (HN) glycoprotein of Sendai virus (Sendai virus); experiment: flow cytometry on SV-infected 721.221 cells pre-incubated with competitor TC-9C1 (anti-HN)
[12] = target: hemagglutinin (HA) of Influenza virus A/PR/8/34 (H1N1) (Influenza virus A/PR/8/34 (H1N1)) (UniProt P03452); experiment: flow cytometry on IV-infected 1106mel cells pre-incubated with competitor H17-L2 (anti-HA)
[13] = target: hemagglutinin (HA) of Influenza virus A/PR/8/34 (H1N1) (Influenza virus A/PR/8/34 (H1N1)) (UniProt P03452); experiment: flow cytometry on IV-infected 1106mel cells pre-incubated with competitor H28-E23 (anti-HA)
[14] = target: hemagglutinin (HA) of Influenza virus A/PR/8/34 (H1N1) (Influenza virus A/PR/8/34 (H1N1)) (UniProt P03452); experiment: flow cytometry on IV-infected 1106mel cells pre-incubated with NA2-1C1 (anti-NA, blocks neuraminidase activity)

Substance: NKp46 receptor on NK cells (from UniProt O76036 22-304)
- lysis of HN-transfected 293T cells by NK line NK-GAL (35S-release) [1]: > 4 fold

Substance: NKp46-Ig fusion protein (Fc fusion)
- hemagglutination inhibition (IV-mediated agglutination of sheep erythrocytes) [2]: 2 µM
- MFI NKp46-Ig binding [3]: 74 MFI
- MFI NKp46-Ig binding [4]: 441 MFI
- fold increase in staining on SV infection [5]: 10 fold
- fold increase in binding on IV infection [6]: 4 fold
- fold increase in staining on HN transfection [7]: 2 fold
- MFI NKp46-Ig binding [8]: 22 MFI
- MFI NKp46-Ig binding [9]: 63 MFI
- MFI NKp46-Ig binding [10]: 14 MFI
- MFI NKp46-Ig binding [11]: 18 MFI
- MFI NKp46-Ig binding [12]: 145 MFI
- MFI NKp46-Ig binding [13]: 63 MFI
- MFI NKp46-Ig binding [14]: 980 MFI
